One series concerns the target R403A Drp1 (UniProt O00429). As to the kind of experiment: not stated; R403A Drp1 in solution (Supplementary Fig. 4a); the same protein was used as a dimer for SEC-SAXS at ~34 uM in buffer A with 1 mM DTT. (In gel filtration, larger molecules generally elute earlier.)
Series [1] concerns the molecule itself. Nature of the series: SEC-MALS; Drp1 in the nucleotide-free apo state, Superose 6 10/300 GL; injected at 5 uM, ~0.5 uM at peak detection; other injection concentrations in the supplement.
Series [2] deals with the molecule itself. As to the kind of experiment: negative-stain EM; 2D class averages of single particles, Drp1 at 2 uM, apo state.
Series [3] deals with the molecule itself. As to the kind of experiment: SEC-MALS; full-length GIPC-1, unliganded, 10 uM at injection, Superdex 200 10/300 GL.
Series [4] deals with human dynamin-related protein 1 (Drp1) isoform 3, wild type, N-terminal His6 tag (human) (UniProt O00429).

Where “and” joins values, the source holds several entries; their conditions need not be identical. Identical values can stand only once. Bounds are passed on as bounds.

By stoichiometry N is commonly meant the number of molecules, sites or subunits per partner or assembly.

As to “R403A Drp1 (from UniProt O00429-4 1-699) (enzyme)”, the stoichiometry N with R403A Drp1 was found to be 2.

B1: human Drp1 isoform 3 ΔCT6 (last six residues, the whole CT-SLiM, removed) (enzyme, UniProt O00429-4 1-693, looked up)
chain: MEALIPVINKLQDVFNTVGADIIQLPQIVVVGTQSSGKSSVLESLVGRDLLPRGTGIVTRRPLILQLVHVSQEDKRKTTGEENGVEAEEWGKFLHTKNKLYTDFDEIRQEIENETERISGNNKGVSPEPIHLKIFSPNVVNLTLVDLPGMTKVPVGDQPKDIELQIRELILRFISNPNSIILAVTAANTDMATSEALKISREVDPDGRRTLAVITKLDLMDAGTDAMDVLMGRVIPVKLGIIGVVNRSQLDINNKKSVTDSIRDEYAFLQKKYPSLANRNGTKYLARTLNRLLMHHIRDCLPELKTRINVLAAQYQSLLNSYGEPVDDKSATLLQLITKFATEYCNTIEGTAKYIETSELCGGARICYIFHETFGRTLESVDPLGGLNTIDILTAIRNATGPRPALFVPEVSFELLVKRQIKRLEEPSLRCVELVHEEMQRIIQHCSNYSTQELLRFPKLHDAIVEVVTCLLRKRLPVTNEMVHNLVAIELAYINTKHPDFADACGLMNNNIEEQRRNRLARELPSAVSRDKVASGGGGVGDGVQEPTTGNWRGMLKTSKAEELLAEEKSKPIPIMPASPQKGHAVNLLDVPVPVARKLSAREQRDCEVIERLIKSYFLIVRKNIQDSVPKAVMHFLVNHVKDTLQSELVGQLYKSSLLDDLLTESEDMAQRRKEAADMLKALQGASQIIAEI
notes: Drp1, human, isoform 3, without the last six residues (R694-W699) of the 699; numbers count on: isoform 3 (699 residues); Limits worked out from 'the last six residues removed' and W699 as the last residue; also called ΔCT6 Drp1; ΔCT6 variant
Regarding B1, the “stoichiometry N” value in series [1] is 4; in series [2], 2.

B2: mouse GIPC-1 (GAIP interacting protein, C-terminus 1), full length (natural protein, UniProt Q9Z0G0 1-333, looked up)
chain: MPLGLGRRKKAPPLVENEEAEPSRSGLGVGEPGPLGGSAAGESQMGLPPPPAALRPRLVFHTQLAHGSPTGRIEGFTNVKELYGKIAEAFRLPAAEVMFCTLNTHKVDMDKLLGGQIGLEDFIFAHVKGQRKEVEVFKSEEALGLTITDNGAGYAFIKRIKEGSVIDHIQLISVGDMIEAINGQSLLGCRHYEVARLLKELPRGRTFTLKLTEPRKAFDMISQRSAGGHPGSGPQLGTGRGTLRLRSRGPATVEDLPSAFEEKAIEKVDDLLESYMGIRDTELAATMVELGKDKRNPDELAEALDERLGDFAFPDEFVFDVWGAIGDAKVGRY
notes: GIPC-1, mouse, full length; also called full-length GIPC-1; source: subcloned in pGEX-6P1, expressed and purified using standard protocols; GST removed by HRV3C; not shown: GST, N-terminal, cleaved
For B2, in series [3], the “stoichiometry N” value came to 2. Besides, the fission of free-standing lipid nanotubes by WT Drp1 with GIPC-1 at 1:1 (0.5 uM each), 1 mM GTP in series [4] is more than 30%.

B3: human Drp1 isoform 3 ΔCT4 (last four residues of the CT-SLiM removed) (enzyme, UniProt O00429-4 1-695, looked up)
chain: MEALIPVINKLQDVFNTVGADIIQLPQIVVVGTQSSGKSSVLESLVGRDLLPRGTGIVTRRPLILQLVHVSQEDKRKTTGEENGVEAEEWGKFLHTKNKLYTDFDEIRQEIENETERISGNNKGVSPEPIHLKIFSPNVVNLTLVDLPGMTKVPVGDQPKDIELQIRELILRFISNPNSIILAVTAANTDMATSEALKISREVDPDGRRTLAVITKLDLMDAGTDAMDVLMGRVIPVKLGIIGVVNRSQLDINNKKSVTDSIRDEYAFLQKKYPSLANRNGTKYLARTLNRLLMHHIRDCLPELKTRINVLAAQYQSLLNSYGEPVDDKSATLLQLITKFATEYCNTIEGTAKYIETSELCGGARICYIFHETFGRTLESVDPLGGLNTIDILTAIRNATGPRPALFVPEVSFELLVKRQIKRLEEPSLRCVELVHEEMQRIIQHCSNYSTQELLRFPKLHDAIVEVVTCLLRKRLPVTNEMVHNLVAIELAYINTKHPDFADACGLMNNNIEEQRRNRLARELPSAVSRDKVASGGGGVGDGVQEPTTGNWRGMLKTSKAEELLAEEKSKPIPIMPASPQKGHAVNLLDVPVPVARKLSAREQRDCEVIERLIKSYFLIVRKNIQDSVPKAVMHFLVNHVKDTLQSELVGQLYKSSLLDDLLTESEDMAQRRKEAADMLKALQGASQIIAEIRE
notes: Drp1, human, isoform 3, without the last four residues (T696-W699) of the 699; numbers count on: isoform 3 (699 residues); Limits worked out from 'the last four residues removed' and W699 as the last residue; also called ΔCT4 Drp1; ΔCT4 variant
Regarding B3, the “stoichiometry N” value came out at 4 in series [1] and 2 in series [2].

B4: human dynamin-related protein 1 (Drp1) isoform 3, wild type, N-terminal His6 tag (enzyme, UniProt O00429-4 1-699, looked up)
chain: MEALIPVINKLQDVFNTVGADIIQLPQIVVVGTQSSGKSSVLESLVGRDLLPRGTGIVTRRPLILQLVHVSQEDKRKTTGEENGVEAEEWGKFLHTKNKLYTDFDEIRQEIENETERISGNNKGVSPEPIHLKIFSPNVVNLTLVDLPGMTKVPVGDQPKDIELQIRELILRFISNPNSIILAVTAANTDMATSEALKISREVDPDGRRTLAVITKLDLMDAGTDAMDVLMGRVIPVKLGIIGVVNRSQLDINNKKSVTDSIRDEYAFLQKKYPSLANRNGTKYLARTLNRLLMHHIRDCLPELKTRINVLAAQYQSLLNSYGEPVDDKSATLLQLITKFATEYCNTIEGTAKYIETSELCGGARICYIFHETFGRTLESVDPLGGLNTIDILTAIRNATGPRPALFVPEVSFELLVKRQIKRLEEPSLRCVELVHEEMQRIIQHCSNYSTQELLRFPKLHDAIVEVVTCLLRKRLPVTNEMVHNLVAIELAYINTKHPDFADACGLMNNNIEEQRRNRLARELPSAVSRDKVASGGGGVGDGVQEPTTGNWRGMLKTSKAEELLAEEKSKPIPIMPASPQKGHAVNLLDVPVPVARKLSAREQRDCEVIERLIKSYFLIVRKNIQDSVPKAVMHFLVNHVKDTLQSELVGQLYKSSLLDDLLTESEDMAQRRKEAADMLKALQGASQIIAEIRETHLW
notes: dynamin-related protein 1 (Drp1), human, isoform 3, 699 residues, ends in the CT-SLiM R694-W699 (RETHLW); numbers count on: isoform 3 (699 residues); also called WT Drp1; WT
B4: the “stoichiometry N” value in series [1] was 2 and 4.

Source of the values: paper PMC10761769, “Allosteric control of dynamin-related protein 1 through a disordered C-terminal Short Linear Motif” (Nature Communications, 2024).
